Data from article PMC10120035, “HY5 functions as a systemic signal by integrating BRC1-dependent hormone signaling in tomato bud outgrowth”.
Residue numbers refer to the chain shown, from its start.

B1: GA2ox4-B WT (dsDNA)
DNA 1: TCCCAAATTTTCGAATTATTAGGGGACCATTTTTTTTAAAAAAA
DNA 2: TTTTTTTAAAAAAAATGGTCCCCTAATAATTCGAAAATTTGGGA
B2: GA2ox4-B mut (dsDNA)
DNA 1: B1 DNA 1 with G23A, G24A, G25A, C27A, C28A
DNA 2: B1 DNA 2 with G17T, G18T, C20T, C21T, C22T
B3: CKX7-A WT (dsDNA)
DNA 1: CCCCGACATCTAAAGAGTGGGCCCAAATATCAGATAAATCAAGAACA
DNA 2: TGTTCTTGATTTATCTGATATTTGGGCCCACTCTTTAGATGTCGGGG
B4: CKX7-A mut (dsDNA)
DNA 1: B3 DNA 1 with G19A, G20A, G21A, C23A, C24A
DNA 2: B3 DNA 2 with G24T, G25T, C27T, C28T, C29T
B5: GA2ox5-A WT (dsDNA)
DNA 1: CAATTGTTTTGTGGGGAAAGGGTGCCCTTTCTTTTTTATTCCAA
DNA 2: TTGGAATAAAAAAGAAAGGGCACCCTTTCCCCACAAAACAATTG
B6: GA2ox5-A mut (dsDNA)
DNA 1: B5 DNA 1 with G21A, G22A, C25A, C26A
DNA 2: B5 DNA 2 with G19T, G20T, C23T, C24T
B7: LOG4-A WT (dsDNA)
DNA 1: AGTAATCCTATTAGAAAAATGGGCCATGGACCTTGCCTTACCTAC
DNA 2: GTAGGTAAGGCAAGGTCCATGGCCCATTTTTCTAATAGGATTACT
B8: LOG4-A mut (dsDNA)
DNA 1: B7 DNA 1 with G21A, G22A, G23A, C24A, C25A
DNA 2: B7 DNA 2 with G21T, G22T, C23T, C24T, C25T

Target: BRC1 (His-BRC1) (Solanum lycopersicum (tomato), UniProt A0A3Q7HTP5 1-406)
Assay: EMSA; Light Shift Chemiluminescent EMSA kit (Thermo 20148) per manufacturer; buffer, salt, pH and temperature not stated
Conditions: protein: recombinant; tags: His (pET-32a); chain copies: 2; label: 3' biotin (probe); blunt

BRC1 (His-BRC1), sequence (A0A3Q7HTP5 entry or part of it): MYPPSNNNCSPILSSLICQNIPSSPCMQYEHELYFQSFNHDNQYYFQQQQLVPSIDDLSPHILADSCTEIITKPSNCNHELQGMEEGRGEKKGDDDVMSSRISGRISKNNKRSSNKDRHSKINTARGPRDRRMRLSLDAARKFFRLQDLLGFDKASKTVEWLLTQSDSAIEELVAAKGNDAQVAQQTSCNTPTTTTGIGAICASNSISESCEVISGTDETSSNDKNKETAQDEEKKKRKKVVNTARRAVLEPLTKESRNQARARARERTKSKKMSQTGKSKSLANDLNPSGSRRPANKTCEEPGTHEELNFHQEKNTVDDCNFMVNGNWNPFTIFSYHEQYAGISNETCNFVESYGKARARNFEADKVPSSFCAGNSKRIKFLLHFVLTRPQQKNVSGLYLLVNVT

| Binder | binding result |
| --- | --- |
| B1 | binds |
| B2 | no binding |
| B3 | binds |
| B4 | no binding |
| B5 | binds |
| B6 | no binding |
| B7 | binds |
| B8 | no binding |
